The values that follow come from article PMC9662066 (Emerging Microbes & Infections, 2022).

Residue numbers refer to the chain shown, from its start.

Sequences and labels used below:
B1: FC08 (antibody, V domains shown)
VH: QLLQQSGAEVKKPGSSVKVSCKASGGTFSSYAISWVRQAPGQGLEWMGGIIPIIGIANYAQKFQGRVTITADKSTSTAYMELSSLRSEDTAVYYCARERGYSGYGAAYYFDYWGQGTLVTVSS
VL: SVLTQPPSVSGAPGQRVTISCTGSSSNIGAGYDVHWYQQLPGTAPKLLIYGNSNRPSGVPDRFSGSKSGTSASLAITGLQAEDEADYYCQSYDSSLSGSVFGGGTKLTVL
B2: LY-CoV555 (antibody, V domains shown)
VH: QVQLVQSGAEVKKPGSSVKVSCKASGGTFSNYAISWVRQAPGQGLEWMGRIIPILGIANYAQKFQGRVTITADKSTSTAYMELSSLRSEDTAVYYCARGYYEARHYYYYYAMDVWGQGTAVTVSS
VL: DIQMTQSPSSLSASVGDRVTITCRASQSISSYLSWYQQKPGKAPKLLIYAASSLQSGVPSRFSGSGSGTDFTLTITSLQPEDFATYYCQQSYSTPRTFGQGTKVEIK
B3: R1-32 (antibody, V domains shown)
VH: EVQLVESGAEVKKPGSSVKVSCKASGGTFSSYAISWVRQAPGQGLEWMGGIIPILGIANYAQKFQGRVTITADKSTSTAYMELSSLRSEDTAVYYCARENGYSGYGAAANFDLWGRGTLVTVSS
VL: QSVLTQPPSVSGAPGQRVTISCTGSSSNIGAGYDVHWYQQLPGTAPKLLIYGNSNRPSGVPDRFSGSKSGTSASLAITGLQAEDEADYYCQSYDSSLSGSVFGGGTKLTVL
B4: MW01 (antibody, V domains shown)
VH: EVQLVQSGAEVKKPGSSVKVSCKASGGTFSSFSISWVRQAPGQGLEWMGRIIPVLGIANYAQEVQGRVTITADKSTSTAYMELSSLRSEDTAVYFCTTDRFVEPATGPFFDYWGQGTLVTVSS
VL: EIVMTQSPATLSVSPGERATLSCRASQSVSSNLAWYQQKPGQAPRLLIYGASTRATGIPARFSGSGSGTEFTLTISSLQSEDFAVYYCQQYSNWLTFGGGTKVEIK
B5: 2-15 (antibody, V domains shown)
VH: QVQLVQSGAEVKKPGASVRVSCKASGYTFTGYYMHWVRQAPGQGLEWMGWINPISDGTNYAQKFQGWVTMTRDTSISTVYMELSRLRSDDTAVYYCARGGSRCSGGNCYGWAYDAFDIWGQGTMITVSS
VL: QSALTQPASVSGSPGQSITISCTGTSSDVGGYNFVSWYQQHPGKAPKLMIYDVSKRPSGVSNRFSGSKSGNTASLTISGLQAEDEADCYCSSYTSSSTFVFGTGTKVTVL
notes: IgG1; IGHV1-2
B6: CV07-270 (antibody, V domains shown)
VH: QVQLVESGGGLVKPGGSLRLSCAASGFTFSDYYMTWIRQAPGKGLEWVSYISSSGSTIYYADSVKGRFTISRDNAKNSLYLQMNSLRAEDTAVYYCARARGSSGWYRIGTRWGNWFDPWGQGTLVTVSS
VL: B5 VL with F34Y, D52E, K55N, C88Y, T98N, F99V, T103G, K106M, V107L
B7: nCoV617 (antibody, V domains shown)
VH: QVQLVESGGGVVQPGRSLRLSCAASGFTFSSYAMHWVRQAPGKGLEWVALISYDGSNKYADSVKGRFTISRDNSKNTLYLQMNSLRAEDTAVYYCARGLGLRFLEWPISSYWGQGTLVTVSS
VL: not shown
notes: IgG1; IGHV3-30
B8: A19-61.1 (antibody, V domains shown)
VH: QVQLVESGGGVVQPGRSLRLSCAASGFTFSSYAFHWVRQAPGKGLEWVAVISYDGSNQYYADSVKGRFTISRDNSKNTLYLQMNSLRADDTAVYYCARDLAIAVAGTWHYYNGMDVWGQGTTVTVSS
VL: DIQMTQSPSSVSASVGDRVIITCRASQGISSWLAWYQQKPGKAPKVLIYDASSLQSGVPSRFSGSGYGTDFTLTISSLQPEDSATYYCQQAKSFPITFGQGTRLEIK
notes: IgG1; IGHV3-30
B9: BD-667 (antibody, V domains shown)
VH: QVQLVESGGGLVKPGGSLRLSCAASGFRFSDYYMNWIRQAPGKGLEWISYIGSGGFATYYGDSVKGRFTVSRDDAENSLYLQMNSLRAEDTAVYYCARGVTSYSDNSGNYRTDDAFDIWGQGTMVTVSS
VL: EIVMTQSPATLSVSPGERATLSCRASQSVSRNLAWYQQRPGQAPRLLIYGASTRATGVAARFTGSGFGTEFTLTISGLQSEDFAVYYCQEYNNWPPWTFGQGTKVEIK
notes: IgG1; IGHV3-11
B10: C548 (antibody, V domains shown)
VH: QVQLVQSGAEVKKPGSSVKVSCKASGGTFSSYAISWVRQAPGQGLEWMGGIIPIFGTANYAQKFQGRVTITADESTSTAYMELSSLRSEDTAVYYCARREAYGPRDYYYYYGMDVWGQGTTVTVSS
VL: QSALTQPPSASASLGASVTLTCTLSSGYSNYKVDWYQQRPGKGPRFVMRVGTGGIVGSKGDGIPDRFSVLGSGLNRYLTIKNIQEEDESDYHCGADQGSGSNFVGVFGGGTKLTVG
notes: IgG1; IGHV1-69-encoded

The first assay concerns the target T1, SARS-CoV-2 WT-RBD (SARS-CoV-2, UniProt P0DTC2).
T1 construct: not shown: 6-His, C-terminal, kept
As to the kind of experiment: ELISA. The following applies: both partners purified.
Turning to B1, the binding result is recorded as “binds”.

B2: the binding result is “binds”.

As to B3, the binding result is on record as “binds”.

For the molecule B4, the binding result is given as “binds”.

In another assay the target is T1, SARS-CoV-2 WT-RBD. Put plainly: BLI. Particulars: both partners purified.
Take B5: the binding result is listed as “binds”.

As for B6, the binding result is listed as “binds”.

Consider B7, for which the binding result is “binds”.

For the molecule B8, the binding result was “binds”.

Regarding B9, the binding result is “binds”.

For B10, the binding result is reported as “binds”.
